{"source": "patent EP3150637A1", "about": "(F. Hoffmann-La Roche AG, dated 2017)", "molecular_target": "T1, human VEGFA-121 (VEFG-A-121-His) (human, UniProt P15692-9 27-147)", "T1 construct": "Captured on an anti-His antibody surface; not shown: His tag", "T1 sequence (looked up)": "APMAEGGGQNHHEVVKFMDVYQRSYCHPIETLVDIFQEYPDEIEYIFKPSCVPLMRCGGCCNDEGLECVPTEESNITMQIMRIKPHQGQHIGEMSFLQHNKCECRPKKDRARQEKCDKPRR", "assay": "SPR (Biacore T200), VEGF-A-121-His captured on anti-His, antibody in solution, Langmuir 1:1", "data": [{"binder": "Ang2VEGF-0477 (bispecific antibody, human IgG1, kappa, Bivalent bispecific CrossMAb CH1-CL) light 1: QPGLTQPPSVSVAPGQTARITCGGNNIGSKSVHWYQQKPGQAPVLVVYDDSDRPSGIPERFSGSNSGNTATLTISRVEAGDEADYYCQVWDSSSDHYVFGTGTKVTVLRTVAAPSVFIFPPSDEKLKSGTASVVCLLNNFYPREAKVQWKVDNALQSGNSQESVTEQDSKDSTYSLSSTLTLSKADYEKHKVYACEVTHQGLSSPVTKSFNRGEC heavy 1: not shown light 2: DIQMTQSPSSLSASVGDRVTITCSASQDISNYLNWYQQKPGKAPKVLIYFTSSLHSGVPSRFSGSGSGTDFTLTISSLQPEDFATYYCQQYSTVPWTFGQGTKVEIKSSASTKGPSVFPLAPSSKSTSGGTAALGCLVKDYFPEPVTVSWNSGALTSGVHTFPAVLQSSGLYSLSSVVTVPSSSLGTQTYICNVNHKPSNTKVDKKVEPKSC heavy 2: not shown", "values": [{"measurement": "koff", "value": "6.11e-05", "unit": "s⁻¹"}]}]}
